Data: US20260008817A1, “CYCLIC PEPTIDE OR SALT THEREOF, AND USES THEREOF” (FUJIFILM Corporation, priority 2023, published 2026)
Positions of bridges follow the written chain, without caps; N, C: chain ends. Non-standard residues stand in square brackets, D forms with d. No end group written: not given here. COCH2 = acetyl group that carries the bridge; NMeL = CN[C@@H](CC(C)C)C(=O)O; hLeu = CC(C)CC[C@H](N)C(=O)O; hCys = N[C@@H](CCS)C(=O)O; Orn = NCCC[C@H](N)C(=O)O; Dab = NCC[C@H](N)C(=O)O; Dap = NC[C@H](N)C(=O)O

B1: cyclic peptide SEQ ID NO: 338 (peptide)
peptide: FXVYTFDAHAHSLDAALNXIKKK
modifications: (Orn(propyl)) and (Hcy) homocysteine joined by a thioether ring
B2: cyclic peptide SEQ ID NO: 336 (peptide)
peptide: ACVWTFDRHAQEISQALHCVKKK
modifications: disulfide 2-19
B3: cyclic peptide SEQ ID NO: 341 (peptide)
peptide: [Orn](COCH2)VYTFDAHAHSLDAALN[hCys]IKKK
modifications: thioether 1-18
B4: cyclic peptide SEQ ID NO: 339 (peptide)
peptide: F[Orn](COCH2)VYTFDAHAHS[NMeL]DAALN[hCys]IKKK
modifications: thioether 2-19
B5: cyclic peptide SEQ ID NO: 333 (peptide)
peptide: A[Dab](COCH2)VWTFDRHAQEISQALH[hCys]VKKK
modifications: thioether 2-19
B6: cyclic peptide SEQ ID NO: 334 (peptide)
peptide: A[Dap](COCH2)VWTFDRHAQEISQALH[hCys]VKKK
modifications: thioether 2-19
B7: cyclic peptide SEQ ID NO: 340 (peptide)
peptide: F[Orn](COCH2)VYTFDAHAHS[hLeu]DAALN[hCys]IKKK
modifications: thioether 2-19
B8: cyclic peptide SEQ ID NO: 331 (peptide)
peptide: AK(COCH2)VWTFDRHAQEISQALH[hCys]VKKK
modifications: thioether 2-19
B9: cyclic peptide SEQ ID NO: 337 (peptide)
peptide: F[Orn](COCH2)VYTFDAHAHSLDAALN[hCys]IKKK
modifications: thioether 2-19
B10: cyclic peptide SEQ ID NO: 330 (peptide)
peptide: A[hCys]VWTFDRHAQEISQALH[Dap](COCH2)VKKK
modifications: thioether 2-19
B11: cyclic peptide SEQ ID NO: 328 (peptide)
peptide: A[hCys]VWTFDRHAQEISQALH[Orn](COCH2)VKKK
modifications: thioether 2-19
B12: cyclic peptide SEQ ID NO: 342 (peptide)
peptide: F[Orn](COCH2)VYTFDAHAHSLDAALN[hCys]KKK
modifications: thioether 2-19
B13: cyclic peptide SEQ ID NO: 329 (peptide)
peptide: A[hCys]VWTFDRHAQEISQALH[Dab](COCH2)VKKK
modifications: thioether 2-19
B14: cyclic peptide SEQ ID NO: 332 (peptide)
peptide: A[Orn](COCH2)VWTFDRHAQEISQALH[hCys]VKKK
modifications: thioether 2-19

Key:
[1] = biological target: T1, Recombinant Human FGFR1 alpha (IIIc) Fc Chimera Protein (Homo sapiens, UniProt P11362); assay: SPR binding affinity of chemically synthesized cyclic peptide to immobilized FGFR; settings: SPR binding amount at 10 nmol/L cyclic peptide, 25° C.; chemically synthesized product
T1 construct: purchased R&D systems 658-FR-050
T1 sequence (P11362 with tags, fused parts or gaps limits assumed): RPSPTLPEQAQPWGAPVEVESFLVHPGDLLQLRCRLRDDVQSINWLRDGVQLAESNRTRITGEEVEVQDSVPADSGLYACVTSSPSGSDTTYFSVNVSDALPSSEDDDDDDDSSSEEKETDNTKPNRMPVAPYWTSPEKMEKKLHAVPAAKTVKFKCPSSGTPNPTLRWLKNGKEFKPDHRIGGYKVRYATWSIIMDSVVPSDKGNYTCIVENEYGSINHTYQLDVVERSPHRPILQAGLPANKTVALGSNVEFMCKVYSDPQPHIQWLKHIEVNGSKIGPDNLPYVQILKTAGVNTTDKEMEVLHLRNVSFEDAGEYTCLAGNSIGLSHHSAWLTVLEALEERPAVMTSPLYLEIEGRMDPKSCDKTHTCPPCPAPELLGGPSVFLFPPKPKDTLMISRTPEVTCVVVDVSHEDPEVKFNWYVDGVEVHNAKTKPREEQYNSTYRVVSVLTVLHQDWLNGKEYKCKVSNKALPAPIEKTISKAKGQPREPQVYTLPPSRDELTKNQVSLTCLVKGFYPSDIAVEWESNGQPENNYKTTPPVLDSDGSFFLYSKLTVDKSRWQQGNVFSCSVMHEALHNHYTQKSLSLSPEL
Experimental: The binding affinity of the cyclic peptide to FGFR was evaluated using a surface plasmon resonance (SPR) method.
The binding affinity of the chemically synthesized cyclic peptide to FGFR was evaluated by the following procedure.
A CM5 sensor chip (Cytiva, 29149603) was set in Biacore-T200 (manufactured by Cytiva) which is a surface plasmon resonance device, and an HBS-EP buffer (Cytiva, BR100826) was added as a running buffer at a flow rate of 10 μL/min to equilibrate the flow channel. Next, 70 μL of a mixed aqueous solution of 0.2 mol/L 1-(3-dimethylaminopropyl)-3-ethylcarbodiimide (EDC) and 0.05 mol/L N-hydroxysuccinimide (NHS) was added to activate the sensor chip. Then, Recombinant Human FGFR1 alpha (IIIc) Fc Chimera Protein CF (R&D systems, 658-FR-050) prepared at 50 nmol/L in an Acetate 4.5 buffer (Cytiva, BR100350) was added thereto to perform immobilization at about 5000 RU. Thereafter, the blocking treatment was performed with an ethanolamine solution. In addition, in another flow channel of the same sensor chip, blocking treatment was performed immediately after activation without immobilizing FGFR.
A cyclic peptide diluted to 10 nmol/L using HBS-EP was added to each flow channel of the FGFR-immobilized sensor chip produced above at 25° C. for 10 minutes, then HBS-EP was allowed to flow as a running buffer for 30 minutes, and the binding of the cyclic peptide to FGFR was measured. Thereafter, a regeneration treatment of removing the bound cyclic peptide was performed by repeating the flow of a regeneration liquid in which sodium chloride powder was dissolved in Glysine 1.5 (Cytiva, BR100354) to a final concentration of 0.15 mol/L for 1 minute in each flow channel twice. The binding amount of the cyclic peptide was evaluated from the difference between the measured value of Biacore-T200 in the flow channel in which FGFR was immobilized and the measured value of Biacore-T200 in the flow channel in which FGFR was not immobilised, in a case where a 10 nmol/L cyclic peptide was allowed to flow.
The binding amount of the cyclic peptide evaluated above was normalized to the binding amount of the cyclic peptide molecules per one molecule of FGFR using the molecular weights of the cyclic peptide and FGFR, and the binding affinity to FGFR was evaluated according to the following evaluation criteria. The evaluation result preferably satisfies the evaluation criteria A, B, or C.
• A: The binding amount is 0.7 molecules of the cyclic peptide/one molecule of FGFR or more. • B: The binding amount is 0.5 molecules of the cyclic peptide/one molecule of FGFR or more and less than 0.7 molecules of cyclic peptide/one molecule of FGFR. • C: The binding amount is 0.1 molecules of cyclic peptide/one molecule of FGFR or more and less than 0.5 molecules of cyclic peptide/one molecule of FGFR. • D: The binding amount is less than 0.1 molecules of the cyclic peptide/one molecule of FGFR.

[2] = Reductive stability of cyclic peptide (DTT treatment, LC); type: physicochemical; settings: residual rate after DTT treatment, room temperature, 1 hour
Experimental: The molecular stability of the cyclic peptide was evaluated by analyzing an aqueous solution of the cyclic peptide treated with a reducing agent by liquid chromatography (LC).
The reducing agent treatment was performed under the following conditions based on the concentration of glutathione contained in the cells. 25 μL of a 0.2 mg/mL cyclic peptide aqueous solution was prepared, 58.8 μL of a 12.6 mmol/L DTT aqueous solution was added to the aqueous solution, and the mixture was incubated at room temperature for 1 hour to obtain an aqueous solution of the cyclic peptide treated with a reducing agent. The DTT aqueous solution was used by diluting a 1 mol/L (+−)-dithiothreitol (DTT) solution (FUJIFILM Wako Pure Chemical Corporation, 044-33871) with water. The total area of all the peaks in LC/MS of the cyclic peptide before the reducing agent treatment was set to 100%, and the proportion of the total area of all the peaks in LC/MS of the aqueous solution of the cyclic peptide treated with the reducing agent was determined to calculate the residual rate of the cyclic peptide, and the molecular stability was evaluated according to the following evaluation criteria. The evaluation result preferably satisfies the evaluation criteria A, B, or C.
• A: The residual rate of cyclic peptide is 90% or more. • B: The residual rate of the cyclic peptide is 70% or more and less than 90% • C: The residual rate of the cyclic peptide is 50% or more and less than 70% • D: The residual rate of the cyclic peptide is less than 50%
The LC used for the evaluation of molecular stability was set to the following conditions. • LC device: Prominence series (pump, column oven, autosampler, detector) (manufactured by Shimadzu Corporation) • Detector: photodiode array detector (SPD-M20A), measurement wavelength of 280 nm • Column: TSKgel ODS-100V, inner diameter of 4.6 mm×length of 150 mm, particle diameter of 5 μm (manufactured by Tosoh Corporation) • Eluent A: solution containing 0.1% trifluoroacetic acid as solute, and solvent is 100% water • Eluent B: solution containing 0.1% trifluoroacetic acid as solute, and solvent is 100% acetonitrile • Flow rate: 1.0 mL/min • Injection amount: 25 μL • Gradient: 20% to 50%: Eluent B (0 to 15 minutes), 100%: Eluent B (15 minutes) • Column temperature: 40° C.

[3] = biological target: Recombinant Human FGFR1 alpha (IIIc) Fc Chimera Protein, CF (R&D systems, 658-FR-050) (human) (UniProt P11362); assay: SPR grade, peptide 10 nmol/L over FGFR1-Fc; settings: scale: moleculesofcyclicpeptide/onemoleculeoffgfr
Recombinant Human FGFR1 alpha (IIIc) Fc Chimera Protein, CF (R&D systems, 658-FR-050) (human), sequence (P11362 22-376, change not shown): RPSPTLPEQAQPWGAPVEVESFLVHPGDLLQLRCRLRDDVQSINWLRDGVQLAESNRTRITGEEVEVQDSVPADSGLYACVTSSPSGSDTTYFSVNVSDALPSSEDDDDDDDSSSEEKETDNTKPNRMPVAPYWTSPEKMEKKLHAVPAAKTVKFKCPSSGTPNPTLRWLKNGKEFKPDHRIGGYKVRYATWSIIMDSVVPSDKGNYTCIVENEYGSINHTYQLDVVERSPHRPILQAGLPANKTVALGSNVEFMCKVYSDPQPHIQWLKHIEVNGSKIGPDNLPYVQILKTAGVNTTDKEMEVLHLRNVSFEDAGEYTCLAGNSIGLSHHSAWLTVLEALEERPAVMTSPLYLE

Molecule | Evaluation result of binding affinity to FGFR [1] | Evaluation result of reductive stability [2] | binding amount (SPR, molecules of cyclic peptide bound per one molecule of FGFR at 10 nmol/L peptide) [3]
327 (A[hCys]VWTFDRHAQEISQALHK(COCH2)VKKK; thioether 2-19) [compound 327] | A (The binding amount is 0.7 molecules of the cyclic peptide/one molecule of FGFR or more.) | A (The residual rate of cyclic peptide is 90% or more.) | 
328 (A[hCys]VWTFDRHAQEISQALH[Orn](COCH2)VKKK; thioether 2-19) [compound 328] | A (The binding amount is 0.7 molecules of the cyclic peptide/one molecule of FGFR or more.) | A (The residual rate of cyclic peptide is 90% or more.) | 
329 (A[hCys]VWTFDRHAQEISQALH[Dab](COCH2)VKKK; thioether 2-19) [compound 329] | B (The binding amount is 0.5 molecules of the cyclic peptide/one molecule of FGFR or more and less than 0.7 molecules of cyclic peptide/one molecule of FGFR.) | A (The residual rate of cyclic peptide is 90% or more.) | 
330 (A[hCys]VWTFDRHAQEISQALH[Dap](COCH2)VKKK; thioether 2-19) [compound 330] | A (The binding amount is 0.7 molecules of the cyclic peptide/one molecule of FGFR or more.) | A (The residual rate of cyclic peptide is 90% or more.) | 
331 (AK(COCH2)VWTFDRHAQEISQALH[hCys]VKKK; thioether 2-19) [compound 331] | B (The binding amount is 0.5 molecules of the cyclic peptide/one molecule of FGFR or more and less than 0.7 molecules of cyclic peptide/one molecule of FGFR.) | A (The residual rate of cyclic peptide is 90% or more.) | 
332 (AXVWTFDRHAQEISQALHXVKKK; not fully specified; Description of Artificial Sequence: Cyclic peptide) [compound 332] | A (The binding amount is 0.7 molecules of the cyclic peptide/one molecule of FGFR or more.) | A (The residual rate of cyclic peptide is 90% or more.) | 
333 (AXVWTFDRHAQEISQALHXVKKK; not fully specified; Description of Artificial Sequence: Cyclic peptide) [compound 333] | A (The binding amount is 0.7 molecules of the cyclic peptide/one molecule of FGFR or more.) | A (The residual rate of cyclic peptide is 90% or more.) | 
334 (AXVWTFDRHAQEISQALHXVKKK; Description of Artificial Sequence: Cyclic peptide) [compound 334] | A (The binding amount is 0.7 molecules of the cyclic peptide/one molecule of FGFR or more.) | A (The residual rate of cyclic peptide is 90% or more.) | 
336 (ACVWTFDRHAQEISQALHCVKKK; disulfide 2-19 (inferred)) [compound 336] | D (The binding amount is less than 0.1 molecules of the cyclic peptide/one molecule of FGFR.) | D (The residual rate of the cyclic peptide is less than 50%) | 
B1 |  |  | 0.1 to 0.5
B2 |  |  | < 0.1
B3 |  |  | 0.1 to 0.5
B4 |  |  | 0.1 to 0.5
B5 |  |  | > 0.7
B6 |  |  | > 0.7
B7 |  |  | 0.5 to 0.7
B8 |  |  | 0.5 to 0.7
B9 |  |  | 0.1 to 0.5
B10 |  |  | > 0.7
B11 |  |  | > 0.7
B12 |  |  | 0.1 to 0.5
B13 |  |  | 0.5 to 0.7
B14 |  |  | > 0.7
